The numbers were not newly measured in paper PMC10119362, which cites them from elsewhere.

This data set concerns the target Amyloid-beta monomer (Homo sapiens) (UniProt P05067).

As to Gantenerumab, the Kd is 23 nM.
